The record followed here is patent publication US20250326817A1 (LA JOLLA INSTITUTE FOR IMMUNOLOGY, published 2025).

Assay [1] addresses T1, mouse BTLA, full length, fused to EGFP, on HEK293 FreeStyle cells (mouse, UniProt Q7TSA3 30-306).
T1 construct: whole, on cells; also called mBTLA; mBTLA-EGFP; not shown: EGFP fused at the C-terminus (pEGFP-N1 vector)
T1 sequence (looked up): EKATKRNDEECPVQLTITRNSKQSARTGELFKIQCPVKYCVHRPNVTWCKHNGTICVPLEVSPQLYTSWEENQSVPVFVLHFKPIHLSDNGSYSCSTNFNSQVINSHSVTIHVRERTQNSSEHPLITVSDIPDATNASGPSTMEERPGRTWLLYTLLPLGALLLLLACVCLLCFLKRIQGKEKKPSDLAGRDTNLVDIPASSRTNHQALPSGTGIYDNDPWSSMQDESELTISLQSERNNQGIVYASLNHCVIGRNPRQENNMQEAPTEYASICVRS
Description: cell-cell flow cytometry (mHVEM-mCherry cells + mBTLA-EGFP cells). As for the experimental part:
(§1) After 2˜3 days, the cells were harvested and diluted to […]. […] These cells were further recorded and analyzed by flow cytometry. […] The cells were incubated for 30 min with shaking at room temperature and washed once by PBS containing 0.2% BSA (PBS-BSA). The cells were re-suspended in 100 uL of PBS-BSA and analyzed by flow cytometry.

The target in assay [2] is T2, mouse LIGHT, full length, on transfected cells (mouse, UniProt Q9QYH9 1-239).
T2 construct: whole, on cells; also called mLIGHT; mLIGHT-IRES-EGFP
T2 sequence (looked up): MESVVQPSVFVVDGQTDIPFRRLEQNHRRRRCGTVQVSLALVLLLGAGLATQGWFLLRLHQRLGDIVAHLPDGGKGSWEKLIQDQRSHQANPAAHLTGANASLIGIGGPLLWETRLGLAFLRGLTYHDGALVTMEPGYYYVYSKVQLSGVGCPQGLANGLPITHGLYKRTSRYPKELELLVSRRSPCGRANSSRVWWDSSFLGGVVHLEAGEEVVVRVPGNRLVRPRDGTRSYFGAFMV
The experiment in a line: cell-cell flow cytometry (mHVEM-mCherry cells + mLIGHT-IRES-EGFP cells). The protocol: as §1

Assay [3] deals with T3, mouse CD160 residues I30-H154 with C-terminal …, refolded from E. coli inclusion bodies (mouse, UniProt O88875 30-154, biotin (mCD160-biotin in the cell staining assay; site not stated)).
T3 construct: range 30-154; also called mCD160; mCD160-biotin
T3 sequence: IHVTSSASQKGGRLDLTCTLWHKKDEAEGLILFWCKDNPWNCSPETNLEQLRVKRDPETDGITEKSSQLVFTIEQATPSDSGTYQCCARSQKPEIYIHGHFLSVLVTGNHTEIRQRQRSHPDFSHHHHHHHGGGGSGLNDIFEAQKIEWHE
The experiment in a line: cell-protein flow cytometry (mHVEM-mCherry cells + mCD160-biotin/streptavidin-AF488). As for the experimental part:
as §1

The target of assay [4] is T4, mouse BTLA, soluble protein (analyte of the Octet assay) (mouse, UniProt Q7TSA3 30-183, limits assumed).
T4 construct: The construct is not described; also called mBTLA; mBTLA-penta-His-tag
T4 sequence (looked up): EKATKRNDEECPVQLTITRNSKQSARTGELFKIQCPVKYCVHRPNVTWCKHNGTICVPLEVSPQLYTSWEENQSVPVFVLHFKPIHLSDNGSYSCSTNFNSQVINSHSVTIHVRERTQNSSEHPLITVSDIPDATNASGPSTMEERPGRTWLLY
Description: cell-protein flow cytometry (mHVEM-mCherry cells + mBTLA-His/anti-His green). The protocol:
as §1

B1: mouse HVEM, wild type, full length, fused to mCherry, on HEK293 FreeStyle cells (receptor)
chain: QPSCRQEEFLVGDECCPMCNPGYHVKQVCSEHTGTVCAPCPPQTYTAHANGLSKCLPCGVCDPDMGLLTWQECSSWKDTVCRCIPGYFCENQDGSHCSTCLQHTTCPPGQRVEKRGTHDQDTVCADCLTGTFSLGGTQEECLPWTNCSAFQQEVRRGTNSTDTTCSSQVVYYVVSILLPLVIVGAGIAGFLICTRRHLHTSSVAKELEPFQEQQENTIRFPVTEVGFAETEEETASN
notes: also called mHVEM; WT mHVEM; not shown: mCherry fused at the C-terminus (pmCherry-N1 vector)
Consider B1, for which the binding result in assay [1] and in assay [2] was “binds” throughout.

B2: A76D_H86D_L90D (receptor)
chain: QPSCRQEEFLVGDECCPMCNPGYHVKQVCSEHTGTVCDPCPPQTYTADANGDSKCLPCGVCDPDMGLLTWQECSSWKDTVCRCIPGYFCENQDGSHCSTCLQHTTCPPGQRVEKRGTHDQDTVCADCLTGTFSLGGTQEECLPWTNCSAFQQEVRRGTNSTDTTCSSQVVYYVVSILLPLVIVGAGIAGFLICTRRHLHTSSVAKELEPFQEQQENTIRFPVTEVGFAETEEETASN
notes: on HEK293 FreeStyle cells; also called mHVEM A76D-H86D-L90D; not shown: mCherry fused at the C-terminus (pmCherry-N1 vector)
For the molecule B2, the binding result in assay [1] was “binds”; in assay [2], “no binding”.

B3: mouse HVEM A76D, full length, fused to mCherry, on cells (receptor)
chain: QPSCRQEEFLVGDECCPMCNPGYHVKQVCSEHTGTVCDPCPPQTYTAHANGLSKCLPCGVCDPDMGLLTWQECSSWKDTVCRCIPGYFCENQDGSHCSTCLQHTTCPPGQRVEKRGTHDQDTVCADCLTGTFSLGGTQEECLPWTNCSAFQQEVRRGTNSTDTTCSSQVVYYVVSILLPLVIVGAGIAGFLICTRRHLHTSSVAKELEPFQEQQENTIRFPVTEVGFAETEEETASN
notes: also called mHVEM A76D; not shown: mCherry fused at the C-terminus (pmCherry-N1 vector)
For the molecule B3, the binding result in assay [1] and in assay [2] was “binds” throughout.

B4: H86D-L90D (receptor)
chain: QPSCRQEEFLVGDECCPMCNPGYHVKQVCSEHTGTVCAPCPPQTYTADANGDSKCLPCGVCDPDMGLLTWQECSSWKDTVCRCIPGYFCENQDGSHCSTCLQHTTCPPGQRVEKRGTHDQDTVCADCLTGTFSLGGTQEECLPWTNCSAFQQEVRRGTNSTDTTCSSQVVYYVVSILLPLVIVGAGIAGFLICTRRHLHTSSVAKELEPFQEQQENTIRFPVTEVGFAETEEETASN
notes: on HEK293 FreeStyle cells; also called mHVEM H86D-L90D; not shown: mCherry reporter (and any vector linker) fused at the cytoplasmic C-terminus (pmCherry-N1)
For the molecule B4, the binding result in assay [1] is “binds”; in assay [2] it was “no binding”; in assay [3], “binds”.

B5: H86R-L90A (receptor)
chain: QPSCRQEEFLVGDECCPMCNPGYHVKQVCSEHTGTVCAPCPPQTYTARANGASKCLPCGVCDPDMGLLTWQECSSWKDTVCRCIPGYFCENQDGSHCSTCLQHTTCPPGQRVEKRGTHDQDTVCADCLTGTFSLGGTQEECLPWTNCSAFQQEVRRGTNSTDTTCSSQVVYYVVSILLPLVIVGAGIAGFLICTRRHLHTSSVAKELEPFQEQQENTIRFPVTEVGFAETEEETASN
notes: on HEK293 FreeStyle cells; also called mHVEM H86R-L90A; not shown: mCherry reporter (and any vector linker) fused at the cytoplasmic C-terminus (pmCherry-N1)
As to B5, the binding result in assay [1] is given as “binds”; in assay [2], “no binding”; in assay [3], “binds”.

B6: G72A-V74D (receptor)
chain: QPSCRQEEFLVGDECCPMCNPGYHVKQVCSEHTATDCAPCPPQTYTAHANGLSKCLPCGVCDPDMGLLTWQECSSWKDTVCRCIPGYFCENQDGSHCSTCLQHTTCPPGQRVEKRGTHDQDTVCADCLTGTFSLGGTQEECLPWTNCSAFQQEVRRGTNSTDTTCSSQVVYYVVSILLPLVIVGAGIAGFLICTRRHLHTSSVAKELEPFQEQQENTIRFPVTEVGFAETEEETASN
notes: on HEK293 FreeStyle cells; also called mHVEM G72A-V74D; not shown: mCherry reporter (and any vector linker) fused at the cytoplasmic C-terminus (pmCherry-N1)
Regarding B6, the binding result in assay [1] is on record as “no binding”; in assay [2] it was “binds”; in assay [4], “no binding”; in assay [3] it was “no binding”.

B7: mouse HVEM H86D-L90A double mutein, full length, fused to mCherry, on cells (receptor)
chain: QPSCRQEEFLVGDECCPMCNPGYHVKQVCSEHTGTVCAPCPPQTYTADANGASKCLPCGVCDPDMGLLTWQECSSWKDTVCRCIPGYFCENQDGSHCSTCLQHTTCPPGQRVEKRGTHDQDTVCADCLTGTFSLGGTQEECLPWTNCSAFQQEVRRGTNSTDTTCSSQVVYYVVSILLPLVIVGAGIAGFLICTRRHLHTSSVAKELEPFQEQQENTIRFPVTEVGFAETEEETASN
notes: also called mHVEM H86D-L90A; mHVEM^-LIGHT; not shown: mCherry fused at the C-terminus (pmCherry-N1 vector)
Regarding B7, the binding result in assay [1] and in assay [3] was “binds” in each case.

B8: A76D_H86D_L90A (receptor)
chain: QPSCRQEEFLVGDECCPMCNPGYHVKQVCSEHTGTVCDPCPPQTYTADANGASKCLPCGVCDPDMGLLTWQECSSWKDTVCRCIPGYFCENQDGSHCSTCLQHTTCPPGQRVEKRGTHDQDTVCADCLTGTFSLGGTQEECLPWTNCSAFQQEVRRGTNSTDTTCSSQVVYYVVSILLPLVIVGAGIAGFLICTRRHLHTSSVAKELEPFQEQQENTIRFPVTEVGFAETEEETASN
notes: on HEK293 FreeStyle cells; also called mHVEM A76D-H86D-L90A; not shown: mCherry fused at the C-terminus (pmCherry-N1 vector) and any vector linker
In the case of B8, the binding result in assay [1] is “binds”; in assay [2] it was “no binding”; in assay [3] it was “no binding”.

B9: mouse HVEM R43D-M56A-K64D triple mutation, full length, fused to mCherry, on cells (receptor)
chain: QPSCDQEEFLVGDECCPACNPGYHVDQVCSEHTGTVCAPCPPQTYTAHANGLSKCLPCGVCDPDMGLLTWQECSSWKDTVCRCIPGYFCENQDGSHCSTCLQHTTCPPGQRVEKRGTHDQDTVCADCLTGTFSLGGTQEECLPWTNCSAFQQEVRRGTNSTDTTCSSQVVYYVVSILLPLVIVGAGIAGFLICTRRHLHTSSVAKELEPFQEQQENTIRFPVTEVGFAETEEETASN
notes: also called mHVEM R43D-M56A-K64D; not shown: mCherry fused at the C-terminus (pmCherry-N1 vector)
Turning to B9, the binding result in assay [4] was “no binding”.

B10: H86A-L90A (receptor)
chain: QPSCRQEEFLVGDECCPMCNPGYHVKQVCSEHTGTVCAPCPPQTYTAAANGASKCLPCGVCDPDMGLLTWQECSSWKDTVCRCIPGYFCENQDGSHCSTCLQHTTCPPGQRVEKRGTHDQDTVCADCLTGTFSLGGTQEECLPWTNCSAFQQEVRRGTNSTDTTCSSQVVYYVVSILLPLVIVGAGIAGFLICTRRHLHTSSVAKELEPFQEQQENTIRFPVTEVGFAETEEETASN
notes: on HEK293 FreeStyle cells; also called mHVEM H86A-L90A; not shown: mCherry reporter (and any vector linker) fused at the cytoplasmic C-terminus (pmCherry-N1)
B10: the figures for the binding result in assay [1], in assay [2] and in assay [3] were “binds”, “no binding” and “binds”, respectively.

B11: H86D-L90R (receptor)
chain: QPSCRQEEFLVGDECCPMCNPGYHVKQVCSEHTGTVCAPCPPQTYTADANGRSKCLPCGVCDPDMGLLTWQECSSWKDTVCRCIPGYFCENQDGSHCSTCLQHTTCPPGQRVEKRGTHDQDTVCADCLTGTFSLGGTQEECLPWTNCSAFQQEVRRGTNSTDTTCSSQVVYYVVSILLPLVIVGAGIAGFLICTRRHLHTSSVAKELEPFQEQQENTIRFPVTEVGFAETEEETASN
notes: on HEK293 FreeStyle cells; also called mHVEM H86D-L90R; not shown: mCherry reporter (and any vector linker) fused at the cytoplasmic C-terminus (pmCherry-N1)
Consider B11, for which the binding result in assay [1] is reported as “binds”; in assay [2], “no binding”; in assay [3], “binds”.

B12: G72D-V74A (receptor)
chain: QPSCRQEEFLVGDECCPMCNPGYHVKQVCSEHTDTACAPCPPQTYTAHANGLSKCLPCGVCDPDMGLLTWQECSSWKDTVCRCIPGYFCENQDGSHCSTCLQHTTCPPGQRVEKRGTHDQDTVCADCLTGTFSLGGTQEECLPWTNCSAFQQEVRRGTNSTDTTCSSQVVYYVVSILLPLVIVGAGIAGFLICTRRHLHTSSVAKELEPFQEQQENTIRFPVTEVGFAETEEETASN
notes: on HEK293 FreeStyle cells; also called mHVEM G72D-V74A; not shown: mCherry reporter (and any vector linker) fused at the cytoplasmic C-terminus (pmCherry-N1)
For the molecule B12, the binding result in assay [1] is recorded as “no binding”; in assay [2], “binds”; in assay [4] it was “no binding”; in assay [3], “no binding”.
